T1: deletion mutant CKAP4-HA ΔLZ (human, UniProt Q07065 1-602)
T1 construct: not shown: HA tag
T1 sequence: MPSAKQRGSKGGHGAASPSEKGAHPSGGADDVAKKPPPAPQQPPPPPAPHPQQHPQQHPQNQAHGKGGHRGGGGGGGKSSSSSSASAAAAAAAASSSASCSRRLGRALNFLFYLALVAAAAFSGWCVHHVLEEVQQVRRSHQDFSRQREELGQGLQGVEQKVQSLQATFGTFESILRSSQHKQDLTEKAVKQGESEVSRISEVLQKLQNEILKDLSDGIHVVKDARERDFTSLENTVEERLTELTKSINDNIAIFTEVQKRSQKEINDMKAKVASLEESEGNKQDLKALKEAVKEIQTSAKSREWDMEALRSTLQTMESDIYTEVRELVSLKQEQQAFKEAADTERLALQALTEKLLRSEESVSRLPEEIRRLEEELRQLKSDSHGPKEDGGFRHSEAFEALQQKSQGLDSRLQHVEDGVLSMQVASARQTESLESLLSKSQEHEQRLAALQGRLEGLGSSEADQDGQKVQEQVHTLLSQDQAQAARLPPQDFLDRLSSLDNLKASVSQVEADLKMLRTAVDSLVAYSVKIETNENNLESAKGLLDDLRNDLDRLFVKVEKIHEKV


Key:
[1] = biological target: T1, deletion mutant CKAP4-HA ΔLZ; assay: co-IP with anti-FLAG antibody from X293T/Dkk1-FLAG cell lysate, immunoblot with anti-HA antibody
Text: A lysate (Input) of X293T/Dkk1-FLAG cells in which wild-type CKAP4-HA (WT) or a deletion mutant CKAP4-HA (ΔLZ) was transiently expressed was immunoprecipitated with an anti-FLAG antibody, and then the cell lysate (Input) and the immunoprecipitates (IP) were subjected to the detection of HA and Dkk1 using an anti-HA antibody and an anti-Dkk1 antibody, respectively. The results are shown in the lower right panel in FIG. 2 (e). […] Namely, it was confirmed that a CRD-1 domain located on the N-terminal side of Dkk1 and a leucine zipper domain of CKAP4 were necessary for the binding between Dkk1 and CKAP4.

[2] = biological target: p85α of S2-CP8 cells (endogenous) (human, UniProt P27986 2-724); assay: co-IP with anti-CKAP4 antibody from S2-CP8 cell lysate (control shRNA or Dkk1 shRNA), immunoblot
Description: A lysate (Input) of S2-CP8 cells in which control shRNA or Dkk1 shRNA (Dkk1) was stably expressed was prepared. The lysate was immunoprecipitated with an anti-CKAP4 antibody. Subsequently, the cell lysate (Input) and the immunoprecipitates (IP) were subjected to the detection of p85α, p110β, CKAP4 and Dkk1 using an anti-p85α antibody, an anti-p110β antibody, an anti-CKAP4 antibody and an anti-Dkk1 antibody, respectively.

p85α of S2-CP8 cells (endogenous), sequence (P27986 2-724): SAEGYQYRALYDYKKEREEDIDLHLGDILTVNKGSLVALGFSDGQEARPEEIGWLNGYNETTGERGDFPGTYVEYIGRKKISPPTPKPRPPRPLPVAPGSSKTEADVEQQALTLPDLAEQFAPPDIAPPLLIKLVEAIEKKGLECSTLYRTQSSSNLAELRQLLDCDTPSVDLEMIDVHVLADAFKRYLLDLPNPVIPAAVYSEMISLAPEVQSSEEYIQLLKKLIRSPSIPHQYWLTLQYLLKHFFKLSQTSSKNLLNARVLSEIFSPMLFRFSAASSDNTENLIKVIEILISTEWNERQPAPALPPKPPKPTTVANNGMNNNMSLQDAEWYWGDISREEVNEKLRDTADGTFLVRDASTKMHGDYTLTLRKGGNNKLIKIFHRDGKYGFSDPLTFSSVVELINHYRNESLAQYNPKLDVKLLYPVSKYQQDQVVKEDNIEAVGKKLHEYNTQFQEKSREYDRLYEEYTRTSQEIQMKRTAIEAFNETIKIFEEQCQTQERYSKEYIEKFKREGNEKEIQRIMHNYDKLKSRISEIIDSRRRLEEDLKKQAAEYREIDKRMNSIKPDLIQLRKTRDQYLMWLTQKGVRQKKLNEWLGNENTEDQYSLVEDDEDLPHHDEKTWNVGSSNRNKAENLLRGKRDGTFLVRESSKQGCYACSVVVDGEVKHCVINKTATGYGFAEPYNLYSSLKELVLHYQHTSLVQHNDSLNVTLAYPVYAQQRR

binding result [1]	binding result [2]	Binder
no binding		Dkk1-FLAG (wild-type human Dkk1 tagged with FLAG at the C-terminal) (ligand, UniProt O94907 32-266, looked up, Expressed in MDCK or X293T cells; pulled down from cell lysates with an anti-FLAG antibody; also called WT-FLAG; wild-type Dkk1-FLAG (WT); not shown: FLAG tag at the C-terminal) TLNSVLNSNAIKNLPPPLGGAAGHPGSAVSAAPGILYPGGNKYQTIDNYQPYPCAEDEECGTDEYCASPTRGGDAGVQICLACRKRRKRCMRHAMCCPGNYCKNGICVSSDQNHFRGEIEETITESFGNDHSTLDGYSRRTTLSSKMYHTKGQEGSVCLRSSDCASGLCCARHFWSKICKPVLKEGQVCTKHRRKGSHGLEIFQRCYCGEGLSCRIQKDHHQASNSSRLHTCQRH
	binds	CKAP4 of S2-CP8 cells (endogenous) (receptor, Used in lysates (IP, immunoblot) and on unfixed cells (staining)) MPSAKQRGSKGGHGAASPSEKGAHPSGGADDVAKKPPPAPQQPPPPPAPHPQQHPQQHPQNQAHGKGGHRGGGGGGGKSSSSSSASAAAAAAAASSSASCSRRLGRALNFLFYLALVAAAAFSGWCVHHVLEEVQQVRRSHQDFSRQREELGQGLQGVEQKVQSLQATFGTFESILRSSQHKQDLTEKAVKQGESEVSRISEVLQKLQNEILKDLSDGIHVVKDARERDFTSLENTVEERLTELTKSINDNIAIFTEVQKRSQKEINDMKAKVASLEESEGNKQDLKALKEAVKEIQTSAKSREWDMEALRSTLQTMESDIYTEVRELVSLKQEQQAFKEAADTERLALQALTEKLLRSEESVSRLPEEIRRLEEELRQLKSDSHGPKEDGGFRHSEAFEALQQKSQGLDSRLQHVEDGVLSMQVASARQTESLESLLSKSQEHEQRLAALQGRLEGLGSSEADQDGLASTVRSLGETQLVLYGDVEELKRSVGELPSTVESLQKVQEQVHTLLSQDQAQAARLPPQDFLDRLSSLDNLKASVSQVEADLKMLRTAVDSLVAYSVKIETNENNLESAKGLLDDLRNDLDRLFVKVEKIHEKV

— patent publication US20180037649A1 (OSAKA UNIVERSITY, published 2018)
